Earlier results, collected in patent publication US20210244796A1, “COMPOSITIONS IN THE FORM OF AN INJECTABLE AQUEOUS SOLUTION COMPRISING AMYLIN AN AMYLIN RECEPTOR AGONIST OR AN AMYLIN ANALOG, AT LEAST ONE IONIC SPECIES AND AN AMPHOIPHILIC COMPOUNDS CONTAINING HYDRIPHOBIC RADICALS” (ADOCIA, priority 2018, published 2021).
Where two headings read alike, the source gives them in different places.

Molecule | pH of the solution above which the peptide is described as shining (pramlintide formulated at acidic pH) | Time for which amylin is stable (acidic pH) | Time for which amylin is stable (neutral pH)
CC[C@H](C)[C@H](NC(=O)[C@@H]1CCCN1C(=O)CNC(=O)[C@H](Cc1ccccc1)NC(=O)[C@H](CC(N)=O)NC(=O)[C@H](CC(N)=O)NC(=O)[C@H](CO)NC(=O)[C@H](CO)NC(=O)[C@H](Cc1c[nH]cn1)NC(=O)[C@@H](NC(=O)[C@H](CC(C)C)NC(=O)[C@H](Cc1ccccc1)NC(=O)[C@H](CC(N)=O)NC(=O)[C@H](C)NC(=O)[C@H](CC(C)C)NC(=O)[C@H](CCCNC(=N)N)NC(=O)[C@H](CCC(N)=O)NC(=O)[C@@H](NC(=O)[C@H](C)NC(=O)[C@@H]1CSSC[C@H](NC(=O)[C@@H](N)CCCCN)C(=O)N[C@@H](CC(N)=O)C(=O)N[C@@H]([C@@H](C)O)C(=O)N[C@@H](C)C(=O)N[C@@H]([C@@H](C)O)C(=O)N1)[C@@H](C)O)C(C)C)C(=O)N[C@@H](CC(C)C)C(=O)N1CCC[C@H]1C(=O)N1CCC[C@H]1C(=O)N[C@H](C(=O)N[C@@H](CC(N)=O)C(=O)N[C@H](C(=O)NCC(=O)N[C@@H](CO)C(=O)N[C@@H](CC(N)=O)C(=O)N[C@H](C(=O)N[C@@H](Cc1ccc(O)cc1)C(N)=O)[C@@H](C)O)C(C)C)[C@@H](C)O [pramlintide, reference compound] | greater than 5.5 |  | 
Amylin: 37 amino acid peptide co-stored and co-secreted with insulin (KCNTATCATQRLANFLVHSSNNFGAILSSTNVGSNTY; Islet amyloid polypeptide; UniProt P10997 34-70, looked up) |  | about fifteen | less than one
